In paper PMC8651296:

Tests used:
[1] = molecular target: ctSTIM1 cysteine mutant at position 337 (C437S background) (human) (UniProt Q13586); experiment: FRET or BRET; single-molecule FRET (TIRF), symmetric inter-subunit: one cysteine mutant labelled with Alexa Fluor 555 and 647 mixed 1:1; single ctSTIM1 dimers in liposomes tethered by biotin-neutravidin; 20/150 TBS pH 7.4, room temperature
[2] = molecular target: ctSTIM1 cysteine mutant at position 312 (C437S background) (human) (UniProt Q13586); experiment: as above

inter-subunit FRET efficiency [1]	inter-subunit FRET efficiency [2]	Substance
0.9		ctSTIM1 cysteine mutant at position 337 (C437S background) (from UniProt Q13586 233-685) (domain or fragment)
	0.9	ctSTIM1 cysteine mutant at position 312 (C437S background) (from UniProt Q13586 233-685) (domain or fragment)
